Measured values: patent publication US20250179200A1 (UNIVERSITY OF CHICAGO, published 2025)
Where a chain is given by its changes, count along the chain named.

T1: Human GHR-Fc-10x His (extracellular region of human growth hormone receptor fused to human Fc) (human, UniProt P10912 50-256)
T1 construct: Captured by its 10x His-tag on a Ni-NTA sensor chip for SPR; not shown: human Fc domain of vector pAB1200 with its linker; 10x His-tag replacing the AviTag
T1 sequence (looked up): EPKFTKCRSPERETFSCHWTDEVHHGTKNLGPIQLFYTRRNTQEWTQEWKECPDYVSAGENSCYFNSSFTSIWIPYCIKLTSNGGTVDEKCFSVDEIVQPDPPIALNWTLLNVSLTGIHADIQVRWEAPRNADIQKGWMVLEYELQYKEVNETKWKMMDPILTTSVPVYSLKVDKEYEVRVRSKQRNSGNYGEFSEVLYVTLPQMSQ

T2: Growth Hormone Receptor (GHR) immobilized on a high binding plate (UniProt P10912 19-264, limits assumed)
T2 sequence (looked up): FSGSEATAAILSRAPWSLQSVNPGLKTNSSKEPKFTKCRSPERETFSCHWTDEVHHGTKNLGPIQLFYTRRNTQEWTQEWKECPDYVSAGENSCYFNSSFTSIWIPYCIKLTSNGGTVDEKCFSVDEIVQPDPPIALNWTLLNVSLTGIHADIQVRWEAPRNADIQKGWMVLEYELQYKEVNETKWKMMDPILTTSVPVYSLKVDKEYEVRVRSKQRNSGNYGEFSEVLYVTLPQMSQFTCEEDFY

B1: GHR11 Fab (Fab, V domains shown)
VH: EVQLVESGGGLVQPGGSLRLSCAASGFNLSYYYIHWVRQAPGKGLEWVASIYSSSGYTYYADSVKGRFTISADTSKNTAYLQMNSLRAEDTAVYYCARQYPYSWSSYGFSSGALDYWGQGTLVTVSS
VL: DIQMTQSPSSLSASVGDRVTITCRASQSVSSAVAWYQQKPGKAPKLLIYSASSLYSGVPSRFSGSRSGTDFTLTISSLQPEDFATYYCQQYFAYYSPITFGQGTKVEIKR
notes: Fab
B2: GHR1 Fab (Fab, V domains shown)
VH: EVQLVESGGGLVQPGGSLRLSCAASGFNVSYSSIHWVRQAPGKGLEWVAYIYSSYGSTYYADSVKGRFTISADTSKNTAYLQMNSLRAEDTAVYYCAREYWPYYSQTGGSAMDYWGQGTLVTVSS
VL: DIQMTQSPSSLSASVGDRVTITCRASQSVSSAVAWYQQKPGKAPKLLIYSASSLYSGVPSRFSGSRSGTDFTLTISSLQPEDFATYYCQQSMHPLITFGQGTKVEIKR
notes: Synthetic human Fab from phage display, expressed in E. coli
B3: GHR3 Fab (Fab, V domains shown)
VH: EVQLVESGGGLVQPGGSLRLSCAASGFNVSYYSIHWVRQAPGKGLEWVAYISPSYGSTSYADSVKGRFTISADTSKNTAYLQMNSLRAEDTAVYYCARGYWGGGYWPYHAFDYWGQGTLVTVSS
VL: B2 VL with S91Y, M92Y, H93T, P94S, I96L
notes: Fab
B4: GHR8 Fab (Fab, V domains shown)
VH: EVQLVESGGGLVQPGGSLRLSCAASGFNISYSSIHWVRQAPGKGLEWVASIYSSYGSTYYADSVKGRFTISADTSKNTAYLQMNSLRAEDTAVYYCARSYIYSQPGFYYDSYALDYWGQGTLVTVSS
VL: B2 VL with S91Y, M92G, H93S, P94W
notes: Fab
B5: GHR4 Fab (Fab, V domains shown)
VH: EVQLVESGGGLVQPGGSLRLSCAASGFNVYYSYIHWVRQAPGKGLEWVAYISPYSGSTSYADSVKGRFTISADTSKNTAYLQMNSLRAEDTAVYYCARQEWYAFDYWGQGTLVTVSS
VL: B2 VL with S91Y, M92W, H93S, P94Y
notes: Fab; also called FAB4
B6: GHR13 Fab (Fab, V domains shown)
VH: EVQLVESGGGLVQPGGSLRLSCAASGFNVYYSSIHWVRQAPGKGLEWVAYIYPSSGSTSYADSVKGRFTISADTSKNTAYLQMNSLRAEDTAVYYCARSWQWYYPGWEQYGWYGMDYWGQGTLVTVSS
VL: B2 VL with M92G, H93G, P94S, I96V
notes: Fab
B7: GHR7 Fab (Fab, V domains shown)
VH: EVQLVESGGGLVQPGGSLRLSCAASGFNFSYSSIHWVRQAPGKGLEWVAYISSYYGYTSYADSVKGRFTISADTSKNTAYLQMNSLRAEDTAVYYCARLQHPSWYYYQGYHSGMDYWGQGTLVTVSS
VL: B2 VL with S91Y, M92W, H93S, P94S
notes: Fab
B8: GHR12 Fab (Fab, V domains shown)
VH: EVQLVESGGGLVQPGGSLRLSCAASGFNVSYYSIHWVRQAPGKGLEWVASIYSSYGSTYYADSVKGRFTISADTSKNTAYLQMNSLRAEDTAVYYCARGYWQGGYYRWGNGGLDYWGQGTLVTVSS
VL: B2 VL with M92Y, H93G, P94W
notes: Fab
B9: GHR2 Fab (Fab, V domains shown)
VH: EVQLVESGGGLVQPGGSLRLSCAASGFNLYYSSIHWVRQAPGKGLEWVAYISPSYGSTSYADSVKGRFTISADTSKNTAYLQMNSLRAEDTAVYYCARYYDYSWPWYWHGGGPAFDYWGQGTLVTVSS
VL: DIQMTQSPSSLSASVGDRVTITCRASQSVSSAVAWYQQKPGKAPKLLIYSASSLYSGVPSRFSGSRSGTDFTLTISSLQPEDFATYYCQQYEEYPLITFGQGTKVEIKR
notes: Fab
B10: GHR10 Fab (Fab, V domains shown)
VH: EVQLVESGGGLVQPGGSLRLSCAASGFNFSYYSIHWVRQAPGKGLEWVASISSYYGSTSYADSVKGRFTISADTSKNTAYLQMNSLRAEDTAVYYCARTEYSFGMYWAHTGMDYWGQGTLVTVSS
VL: B9 VL with Y91F, E92W, E93S, Y94S, P95E, L96P
notes: Fab
B11: GHR6 Fab (Fab, V domains shown)
VH: EVQLVESGGGLVQPGGSLRLSCAASGFNVYYSSIHWVRQAPGKGLEWVASIYSSYGYTSYADSVKGRFTISADTSKNTAYLQMNSLRAEDTAVYYCARGQWSGLSGYWEYKALDYWGQGTLVTVSS
VL: B9 VL with Y91V, E92G, E93G, Y94S, P95S
notes: Fab
B12: GHR5 Fab (Fab, V domains shown)
VH: EVQLVESGGGLVQPGGSLRLSCAASGFNVSYYSIHWVRQAPGKGLEWVAYISPSSGSTSYADSVKGRFTISADTSKNTAYLQMNSLRAEDTAVYYCARMYWQGGYSSYWQSYAMDYWGQGTLVTVSS
VL: B9 VL with Y91K, E92S, E93Q, P95S, I97V
notes: Fab
B13: GHR9 Fab (Fab, V domains shown)
VH: EVQLVESGGGLVQPGGSLRLSCAASGFNVSYSSIHWVRQAPGKGLEWVASISSSYGSTYYADSVKGRFTISADTSKNTAYLQMNSLRAEDTAVYYCARYYDYSWSTYKGIGTGAIDYWGQGTLVTVSS
VL: B9 VL with E92W, E93Y, Y94S, P95Y
notes: Fab
B14: GHR15 Fab (Fab, V domains shown)
VH: EVQLVESGGGLVQPGGSLRLSCAASGFNVSSSSIHWVRQAPGKGLEWVASIYSYYGYTSYADSVKGRFTISADTSKNTAYLQMNSLRAEDTAVYYCARSSGYHGWYWNGMDYWGQGTLVTVSS
VL: B9 VL with Y91W, E92Y, E93G, Y94M, P95S, I97V
notes: Fab
B15: GHR14 Fab (Fab, V domains shown)
VH: EVQLVESGGGLVQPGGSLRLSCAASGFNISSSYIHWVRQAPGKGLEWVASISSYYGYTSYADSVKGRFTISADTSKNTAYLQMNSLRAEDTAVYYCARSYGSYYGYYHYWEWYGLDYWGQGTLVTVSS
VL: B9 VL with Y91W, E92Q, E93Y, Y94W, P95S, L96P, I97V
notes: Fab
B16: GHR3 Fab (Fab, V domains shown)
VH: B3 VH
VL: B2 VL with S91Y, M92Y, H93T, P94S, I96L
B17: GHR_TS10 Fab (Fab, V domains shown)
VH: EVQLVESGGGLVQPGGSLRLSCAASGFNFSSSYIHWVRQAPGKGLEWVAYISPSSGYTSYADSVKGRFTISADTSKNTAYLQMNSLRAEDTAVYYCARQYYGGWYGFGMDYWGQGTLVTVSS
VL: B2 VL with S91W, M92H, H93S, P94Y
B18: GHR_TS23 Fab (Fab, V domains shown)
VH: EVQLVESGGGLVQPGGSLRLSCAASGFNFYYSSIHWVRQAPGKGLEWVASIYSYSGSTSYADSVKGRFTISADTSKNTAYLQMNSLRAEDTAVYYCARQYWYYGGYFYYGIDYWGQGTLVTVSS
VL: B2 VL with S91Y, M92W, H93S, P94T

What follows are binders tested against T1, Human GHR-Fc-10x His (extracellular …) (assay: SPR, GHR-Fc-10xHis captured on Ni-NTA chip, Fab as analyte, 1:1 fit).
Description: Surface plasmon resonance (SPR) measurements were conducted in a MASS-1 (Bruker) instrument. The target GHR-Fc (50 nM) with a 10× His-tag was captured in a Ni-NTA sensor chip. […] Flow rate was 30 ul/min and temperature 20° C. Sensograms were corrected through double referencing and fitting was done with a 1:1 binding model using the Sierra Analyzer (Bruker). For epitope binning experiments, the first FAB was injected at saturating concentrations (200 nM), followed by injection a second FAB in equal molar mixture with the first FAB, and the response unit (RU) was recorded.
Target GHR_Fc (from different species) were immobilized via a 10× His-tag to a Ni-NTA sensor chip. […] Sensograms were corrected through double referencing and 1:1 binding model fit was done using Sierra Analyzer (Bruker). To reveal different epitopes on GHR, the epitope binning experiment was performed.

Binder	Kd	koff	kon
B1	1.3 nM	0.000587 s⁻¹	451000 M⁻¹ s⁻¹
B2	6.29 nM	0.000336 s⁻¹	53400 M⁻¹ s⁻¹
B3	< 1 nM	1.32e-06 s⁻¹	405000 M⁻¹ s⁻¹
B4	3.23 nM	0.000505 s⁻¹	156000 M⁻¹ s⁻¹
B5	1.9 nM	0.000992 s⁻¹	522000 M⁻¹ s⁻¹
B6	2.84 nM	0.00053 s⁻¹	187000 M⁻¹ s⁻¹
B7	2.21 nM	0.00129 s⁻¹	587000 M⁻¹ s⁻¹
B8	< 1 nM	0.000168 s⁻¹	536000 M⁻¹ s⁻¹
B9	16.8 nM	0.000873 s⁻¹	51200 M⁻¹ s⁻¹
B10	1.51 nM	0.000642 s⁻¹	425000 M⁻¹ s⁻¹
B11	1.89 nM	0.000296 s⁻¹	156000 M⁻¹ s⁻¹
B12	15.5 nM	0.00211 s⁻¹	136000 M⁻¹ s⁻¹
B13	< 1 nM	0.00012 s⁻¹	238000 M⁻¹ s⁻¹
B14	< 1 nM	0.000131 s⁻¹	170000 M⁻¹ s⁻¹
B15	7.15 nM	0.00127 s⁻¹	177000 M⁻¹ s⁻¹

What follows are binders tested against T2, Growth Hormone Receptor (GHR) … (assay: competition ELISA: Fab titrated on plate-bound GHR preincubated with 200 nM GH (the legend of 6A names B2036), anti-human Fab-HRP).
Description: 200 nM of GHR was immobilized on a 96-well high binding plate (Geiner Bio) and blocked with 5% BSA overnight. […] The Fab binding to GHR was detected using HRP-conjugated anti-human (Fab)2 antibody (Jackson ImmunoResearch, 1:5000 dilution in PBST), and the signal was developed with TMB substrate.

Binder	EC50
B16	26 nM
B17	3.5 nM
B18	3.5 nM
